Several values for one entry are separate records, joined by “and”; a condition that tells them apart may be missing. Equal entries are not always repeated. Where two headings read alike, the source gives them in different places.
Experiments:
[1] = target: T1, enzymatically active free PSA (York PSA) (Homo sapiens, UniProt P07288); test: Recognition/cleavage of oligopeptide-vinca drug conjugates by free PSA (HPLC); format: biochemical; details: for Time to 50% Substrate Cleavage by York PSA: conjugate to PSA molar ratio 100 to 1, pH7.4 buffer
T1 construct: 50% cleavage of the noted. oligopeptide-cytotoxic agent conjugates with enzymatically active free PSA were then calculated; purchased York
T1 sequence (P07288 25-261): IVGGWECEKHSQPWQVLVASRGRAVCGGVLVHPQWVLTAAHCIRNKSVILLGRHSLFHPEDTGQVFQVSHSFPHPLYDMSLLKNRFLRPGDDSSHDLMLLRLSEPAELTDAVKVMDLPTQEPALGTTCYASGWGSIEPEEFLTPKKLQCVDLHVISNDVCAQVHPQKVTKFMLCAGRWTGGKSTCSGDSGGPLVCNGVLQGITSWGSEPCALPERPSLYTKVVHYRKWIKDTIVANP
Description: The conjugates prepared as described in Example 3 were individually dissolved in PSA digestion buffer (50 mM tris(hydroxymethyl)-aminomethane pH7.4, 140 mM NaCl) and the solution added to PSA at a molar ration of 100 to 1. Alternatively, the PSA digestion buffer utilized is 50 mM tris(hydroxymethyl)-aminomethane pH7.4, 140 mM NaCl. The reaction was quenched after various reaction times by the addition of trifluoroacetic acid (TFA) to a final 1% (volume/volume). Alternatively the reaction is quenched with 10 mM ZnCl2. The quenched reaction was analyzed by HPLC on a reversed-phase C18 column using an aqueous 0.1 % TFA/acetonitrile gradient. The amount of time (in minutes) required for 50% cleavage of the noted. oligopeptide-cytotoxic agent conjugates with enzymatically active free PSA were then calculated.

[2] = tested on: LNCap prostate tumor cells; test: In vitro cytotoxicity, Alamar Blue assay, LNCaP cells; format: cell-based; details: read-out: LNCaP Cell Kill in 72 HRS EC 50
Description: (§1) Specifically, cell cultures of LNCap prostate tumor cells, Colo320DM cells (designated C320) or T47D cells in 96 well plates was diluted with medium containing various concentrations of a given conjugate (final plate well volume of 200 μl). […] The cells were incubated for 3 days at 37° C., 20 μl of Alamar Blue is added to the assay well. The cells were further incubated and the assay plates were read on a EL-310 ELISA reader at the dual wavelengths of 570 and 600 nm. at 4 and 7 hours after addition of Alamar Blue. Relative percentage viability at the various concentration of conjugate tested was then calculated versus control (no conjugate) cultures and an EC50 was determined. Unless otherwise indicated, the acetate salt of the conjugate was tested.

Colo320DM cells = test: In vitro cytotoxicity, Alamar Blue assay, Colo320DM control cells (do not express free PSA); format: cell-based; details: 72 HRS, read-out: Colo320DM cell kill EC 50 (in parentheses)
Description: as §1

[3] = target: T1, enzymatically active free PSA (York PSA); test: Recognition/cleavage of oligopeptide-vinca drug conjugates by free PSA (HPLC); format: biochemical

For “4-O-[Ac-SSChgQ-S(dS)-4-trans-L-Hyp]-dAc-VIN”, the “Substrate cleavage by York PSA at 1 HOUR” value [1] was 1 HOUR = 14%.
In the case of 4-O-[Ac-SChgQSS-Aib-P]-dAc-VIN, the “Time to 50% Substrate Cleavage by York PSA” value [1] is reported as 15 min and 23 min.
In the case of `CC[C@]1(O)C[C@H]2CN(CCc3c([nH]c4ccccc34)[C@@](C(=O)OC)(c3cc4c(cc3OC)N(C)[C@H]3[C@@](O)(C(=O)OC)[C@H](OC(=O)CNC)[C@]5(CC)C=CCN6CC[C@]43[C@@H]65)C2)C1` [4-O-sarcosyl-(dAc)-VIN], the EC50 ([2]; 72 HRS) is reported as 1300 nM and the EC50 (Colo320DM cells) is reported as 1800 nM.
“4-O-[Ac-4-trans-L-HypSSChgQ-(dS)SP]-dAc-VIN” was tested, and the “Time to 50% Substrate Cleavage by York PSA, 10 X ENZ” value [3] was 6 HOURS (10 X.
For Ac-AbuSSChgQ-(dS)-(4-O-P)-dAc-VIN, the “Substrate cleavage by York PSA at 1 HOUR” value [1] was 1 HOUR = 0%.
`CCC1(O)CC2CN(CCc3c([nH]c4ccccc34)C(C(=O)OC)(c3cc4c(cc3OC)N(C)C3C(O)(C(=O)OC)C(OC(=O)C5CC(O)CN5)C5(CC)C=CCN6CCC43C65)C2)C1` [(4-O-4-trans-L-Hyp)-dAc-VIN] gave an EC50 ([2]; 72 HRS) of 600 nM and an EC50 (Colo320DM cells) of 1100 nM.
`CC[C@]1(O)C[C@@H]2CN(CCc3c([nH]c4ccccc34)[C@@](C(=O)OC)(c3cc4c(cc3OC)N(C)[C@H]3[C@@](O)(C(=O)OC)[C@H](OC(C)=O)[C@]5(CC)C=CCN6CC[C@]43[C@@H]65)C2)C1` [VINBLASTINE, reference compound] gave an EC50 ([2]; Homo sapiens, LNCaP, 72 h) of 500 nM and an EC50 (Colo320DM cells; Homo sapiens, COLO 320DM) of 500 nM.
With 4-O-[Ac-SChgQSS-Pip]-dAc-VIN the “Time to 50% Substrate Cleavage by York PSA” value [1] was 15 min.
In the case of 4-O-[Ac-SChgQS-Aib-P]-dAc-VIN, the “Substrate cleavage by York PSA at 1 HOUR” value [1] is reported as 1 HOUR = 8%.
In the case of “4-O-(Ac-SSChgQ-SS-P)-dAc-VIN (XSXQSSP; non-natural residues)”, the “Time to 50% Substrate Cleavage by York PSA” value [1] is reported as 15 min.
For “(4-O)-Ac-(4-trans-L-Hyp)SSChgQ-SL-(dAc)-VIN (XSSXQSL; non-natural residues)”, the “Time to 50% Substrate Cleavage by York PSA” value [1] was 35 min.
For “4-O-(Ac-3-Pal-SSChgQ(dS)-P)-dAc-VIN (XSSXQXP; D-residues; non-natural residues)”, the “Substrate cleavage by York PSA at 3 HOURS” value ([1]; 3 HOURS) was 3 HOURS = 0%.
“4-O-[(2-OH)Ac-SChgQSS-Sar]-dAc-VIN (XXQSSX; N-methyl; non-natural residues)” was tested, and the “Substrate cleavage by York PSA at 1 HOUR” value [1] was 1 HOUR = 4%.

Source: patent US20040081659A1, “Conjugates useful in the treatment of prostate cancer” (Merck & Co., Inc., priority 1997, published 2004)
